Like-named read-outs stand apart in the source and are kept apart here.
Key:
[1] = biological target: human cancer-specific MUC1; experiment: Example 6-2: ELISA binding activity of anti-human MUC1 antibody Fab^5 fragment conjugates; settings: immobilized human cancer-specific MUC1 peptide
Procedure: Each anti-human MUC1 antibody Fab^5 fragment conjugate prepared by the method of Example 5 was subjected to ELISA to evaluate the binding activity thereof to human cancer-specific MUC1. In the present test, 20×PBS/Tween 20 Buffer (Thermo Fisher Scientific Inc., 28352) diluted 20-fold with distilled water was used as a wash liquid. In addition, for bovine serum albumin (BSA) used in the present test, 30% Bovine Serum Albumin solution (Sigma-Aldrich, Inc., A9576-50ML) was added in an appropriate proportion for use. A human cancer-specific MUC1 peptide (PTL 1) at 0.5 μmol/L was added to a Nunc MaxiSorp White 384 plate (Nunc, 460372) at 30 μL per well, and the plate was incubated overnight at 4° C. for immobilization. The MUC1 peptide was removed by reverse centrifugation, and then blocking was carried out by adding a PBS/Tween 20 buffer containing 5.0% BSA. […] The substrate was incubated at room temperature for 15 minutes, and then a signal value thereof was measured using an Envision counter (PerkinElmer, Inc.).
The test for each antibody was carried out in duplicate, and the EC50 value was calculated using a 4-parameter logistic curve model.

[2] = biological target: human cancer-specific MUC1; experiment: Example 6-1: ELISA binding activity of anti-human MUC1 antibody Fab^5 fragment conjugates; settings: immobilized human cancer-specific MUC1 peptide, single runs of P10-2, read-out: EC50 value (nM) for each of 3 runs
[3] = parameters: species or system mice (BALB/c or BALB/c nu/nu); settings: mouse, in vivo
Procedure: (§1) A Gd-labeled conjugate of the conjugate containing a peptide linker produced in one of the above Examples was administered from the tail vein of mice (BALB/c or BALB/c nu/nu) so that the protein mass was 0.02 mg (100 μL) per animal. After about 24 hours, the mice were sacrificed and the kidneys were removed, and the amount of Gd in the kidneys was measured using ICP-MS. The present test was carried out in 3 cases in each group, the mean value of the 3 cases was calculated, and the amount of Gd contained per kidney after administration was shown as a percentage (% of dose/tissue) of the total amount of Gd administered.
Based on the amount of Gd contained in the kidneys of the control conjugate, the proportion of decrease in the amount of Gd contained in the kidneys of each of the conjugates having a peptide linker was determined.

[4] = tested on: human breast cancer cell line MDA-MB-468; experiment: Example 8: amount of tumor accumulation of Gd-labeled conjugates (tumor-bearing mice); settings: MDA-MB-468 tumor-bearing mice, 24 hours; control conjugate Ex-No. 108, mean of 2 runs
Procedure: (§2) A Gd-labeled conjugate of the conjugate containing a peptide linker produced in one of the above Examples was administered from the tail vein of the tumor-bearing mice so that the protein mass was 0.02 mg (100 μL) per animal. As the tumor-bearing mice used in the present Example, mice (BALB/c nu/nu) that were in a tumor-bearing state brought about by transplanting human breast cancer cell line MDA-MB-468 (ATCC(registered trademark); HTB-132) at 5.0×10^6 cells/mouse subcutaneously on the back before administration of the sample were used. 24 hours after administration of the sample, the mice were sacrificed, the kidneys and the tumor were removed, and the amounts of Gd in the kidneys and in the tumor were measured using ICP-MS. The present test was carried out in 3 cases in each group, and the mean value of the 3 cases was calculated. The amount of Gd contained per kidney after administration was shown as a percentage of the amount of Gd administered (% of dose/tissue), and the amount of Gd contained per g of tumor tissue was shown as a percentage of the total amount of Gd administered (% of dose/g).

[5] = parameters: species or system mice (BALB/c nu/nu); settings: mouse, in vivo
Procedure: as §2

[6] = biological target: human cancer-specific MUC1 peptide (PTL 1) (human); experiment: ELISA, immobilised MUC1 peptide (Example 6-1)
Chain of human cancer-specific MUC1 peptide (PTL 1) (human) (main, as listed by the source): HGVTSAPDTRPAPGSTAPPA

[7] = biological target: human cancer-specific MUC1 peptide (PTL 1) (human); experiment: ELISA, immobilised MUC1 peptide (Example 6-2)
[8] = tested on: human colorectal cancer cell line LS174T cells; experiment: Example 4-4: amount of tumor accumulation of Gd-labeled conjugates (tumor-bearing mice); settings: tail vein, 0.02 mg protein per animal, 24 hours, ICP-MS, mean of 3 cases
Procedure: (§3) A Gd-labeled conjugate of the conjugate containing a peptide linker produced in one of the above Examples was administered from the tail vein of tumor-bearing mice so that the protein mass was 0.02 mg (100 μL) per animal. As the tumor-bearing mice used in the present Example, mice (BALB/c nu/nu) that were in a tumor-bearing state brought about by transplanting human colorectal cancer cell line LS174T cells (ATCC(registered trademark); CL-188) at 2.0 to 5.0×10^6 cells/mouse subcutaneously on the back before administration of the sample were used. 24 hours after administration of the sample, the mice were sacrificed, the kidneys and the tumor were removed, and the amounts of Gd in the kidneys and in the tumor were measured using ICP-MS. The present test was carried out in 3 cases in each group, and the mean value of the 3 cases was calculated. The amount of Gd contained per kidney after administration was shown as a percentage of the amount of Gd administered (% of dose/tissue), and the amount of Gd contained per g of tumor tissue was shown as a percentage of the total amount of Gd administered (% of dose/g).

[9] = parameters: species or system mice (BALB/c nu/nu); settings: mouse, in vivo; remark: listed apart in the source
Procedure: as §3

[10] = Example 4-1: kidney accumulation evaluation test of Gd-labeled conjugates (normal mice); settings: about 24 hours, relative to control conjugate Ex-No 47
Procedure: as §1
(§4) Based on the percentage of the control conjugate (% of dose/tissue), the proportion of decrease in the amount of Gd contained in the kidneys of each of the conjugates having a peptide linker was determined and shown in Table 28.

[11] = mouse, in vivo
Procedure: as §1

[12] = parameters: species or system mice (BALB/c or BALB/c nu/nu); settings: mouse, in vivo; remark: listed apart in the source
Procedure: as §1

[13] = mouse, in vivo; remark: listed apart in the source
Procedure: as §1, §4

B1: P10-2: anti-human MUC1 antibody Fab fragment disclosed in International Publication WO2018/092885 (antibody)
heavy: QVQLVQSGAEVKKPGASVKVSCKASGYTFTNYGLSWVRQAPGQGLEWMGENHPGSGIIYHNEKFRGRVTLTADRSTSTAYMELSSLRSEDTAVYYCARSSGTRGFDYWGQGTLVTVSSASTKGPSVFPLAPSSKSTSGGTAALGCLVKDYFPEPVTVSWNSGALTSGVHTFPAVLQSSGLYSLSSVVTVPSSSLGTQTYICNVNHKPSNTKVDKKVEPKSCD
light: DVVMTQTPLSLSVTPGQPASISCRSSQSIVHSNGNTYLEWYLQKPGQSPQLLIYRVSNRFSGVPDRFSGSGSGTDFTLKISRVEAEDVGVYYCFQGSHGPWTFGQGTKLEIKRTVAAPSVFIFPPSDEQLKSGTASVVCLLNNFYPREAKVQWKVDNALQSGNSQESVTEQDSKDSTYSLSSTLTLSKADYEKHKVYACEVTHQGLSSPVTKSFNRGEC
EC50 ([1]; single runs of P10-2, read-out: EC50 value (nM) for each of 3 runs): 0.06 nM | EC50 [2]: 0.06 nM

B2: [Gd/DOTA-NH—CH2-(1,4-Ph)-NH—C(═O)-Met-Ile-NH—(CH2)2-(A-4 and/or A-5)]p-Fab^5 (conjugate)
heavy: B1 heavy
light: B1 light
Renal residual amount (normal mice), % of dose/tissue [3]: 2.30 % of dose/tissue

B3: Ex-No 108 (conjugate)
heavy: B1 heavy
light: B1 light
Amount of tumor accumulation (% of dose/g), Mean [4]: 0.92 % of dose/g | Renal residual amount (% of dose/tissue), Mean [5]: 34.67 % of dose/tissue | Renal residual amount (normal mice), Mean (% of dose/tissue) [3]: 33.00 % of dose/tissue

B4: [Gd/DOTA-NH—CH2-(1,4-Ph)-NH—C(═O)-Met-Ile-NH—(CH2)2—Z1(#S)]p-Fab^5 (conjugate)
heavy: B1 heavy
light: B1 light
EC50 ([1]; run in duplicate, read-out: EC50): 0.09 nM

B5: [Gd/DOTA-NH—CH2-(1,4-Ph)-NH—C(═O)-Met-Ile-NH—(CH2)2-(A-3)]p-Fab^5 (conjugate)
heavy: B1 heavy
light: B1 light
Renal residual amount (normal mice), % of dose/tissue [3]: 2.80 % of dose/tissue

B6: ([Gd/DOTA-NH-CH2-(1,4-Ph)-NH-C(═O)-Met-Ile-NH-(CH2)2-(A-3)]p-Fab^5) (Fab, V domains shown)
VH: QVQLVQSGAEVKKPGASVKVSCKASGYTFTNYGLSWVRQAPGQGLEWMGENHPGSGIIYHNEKFRGRVTLTADRSTSTAYMELSSLRSEDTAVYYCARSSGTRGFDYWGQGTLVTVSS
VL: DVVMTQTPLSLSVTPGQPASISCRSSQSIVHSNGNTYLEWYLQKPGQSPQLLIYRVSNRFSGVPDRFSGSGSGTDFTLKISRVEAEDVGVYYCFQGSHGPWTFGQGTKLEIKR
modifications: labeling portion on p amino groups of the Fab; chain and sites not stated
EC50 [6]: 0.15 nM

B7: Ex-No 108, conjugate with Fab^5 that does not contain a peptide linker (structure only as drawing CHEM-US-00162) (Fab, V domains shown)
VH: B6 VH
VL: B6 VL
modifications: labeling portion on p amino groups of the Fab; chain and sites not stated
EC50 [7]: 0.07 nM | EC50 [6]: 0.07 nM

B8: [Gd/DOTA-[2,5-(1,2,3,4-tetrahydroisoquinoline)]-C(═O)-Met-Gly-Lys*-Z2(#N)]p-Fab^2 (conjugate)
heavy: EVQLVESGGGLVQPGGSLRLSCAASGFNIRDTYMHWVRQAPGKGLEWVARIDPANGNSRYVPKFQGRFTISADTSRNTAYLQMNSLRAEDTAVYYCAPFGYYVSDYAMAYWGQGTLVTVSSASTKGPSVFPLAPSSKSTSGGTAALGCLVKDYFPEPVTVSWNSGALTSGVHTFPAVLQSSGLYSLSSVVTVPSSSLGTQTYICNVNHKPSNTKVDKKVEPKSCD
light: DIQLTQSPSSLSASVGDRVTITCRAGESVDIFGVGFLHWYQQKPGKAPKLLIYRASNLESGIPSRFSGSGSRTDFTLTISSLQPEDFATYYCQQTNEDPYTFGQGTKVEIKRTVAAPSVFIFPPSDEQLKSGTASVVCLLNNFYPREAKVQWKVDNALQSGNSQESVTEQDSKDSTYSLSSTLTLSKADYEKHKVYACEVTHQGLSSPVTKSFNRGEC
Amount of tumor accumulation (tumor-bearing mice), % of dose/g [8]: 4.53 % of dose/g | Renal residual amount (cancer-bearing mice), % of dose/tissue [9]: 7.30 % of dose/tissue | Renal residual amount (cancer-bearing mice), Proportion of decrease (%) [9]: 71.74% | Proportion of decrease (%) in the amount of Gd contained in the kidneys [10]: 82.9%

B9: [Gd/4arm-DOTA-CH2-(1,4-Ph)-NH—C(═S)-Gly-Phe-Lys*-Z2(#N)]p-Fab^2 (conjugate)
heavy: B8 heavy
light: B8 light
Proportion of decrease (%) in the amount of Gd contained in the kidneys [10]: 68.0%

B10: [Gd/4arm-DOTA-CH2-(1,4-Ph)-NH—C(═S)—NH—CH2-(1,3-Ph)-C(═O)-Met-Gly-Lys*-Z2(#S)]p-Fab^2 (conjugate)
heavy: B8 heavy
light: B8 light
Proportion of decrease (%) in the amount of Gd contained in the kidneys [10]: 72.9%

B11: [Gd/DOTA]p-Fab^2 (conjugate)
heavy: B8 heavy
light: B8 light
Renal residual amount (normal mice), % of dose/tissue [11]: 31.30 % of dose/tissue | Renal residual amount (% of dose/tissue), Mean [12]: 29.33 % of dose/tissue | Renal residual amount (% of dose/tissue), Mean [9]: 25.83 % of dose/tissue | Geometric mean (% of dose/tissue) [13]: 31.0 % of dose/tissue
